The target in one test is TNF-alpha (Homo sapiens, UniProt P01375). As to the kind of experiment: Inhibition of TNF-alpha cytotoxicity against U937 cells. It counts as cell-based. The conditions noted are these: constant dose of TNF-alpha at EC50.
For the next test, the system named is MDA-MB-231 cells. As to the kind of experiment: MTT proliferation assay, MDA-MB-231.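 On all read-outs here: human cancer cells grown to 90% confluence before treatment, treated groups compared against a vehicle control group.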 In kind it is cell-based, human. The note with it: for Mean Absorbance (570 nM) ± S.E., Overall Mean: 4 experiments.
The test system of a further test is PANC-1 cells. As to the kind of experiment: MTT proliferation assay, PANC-1. In kind it is cell-based, human. The conditions noted are these: for Mean Absorbance (570 nM) ± S.E., Overall Mean: 3 experiments; for Mean Absorbance (570 nM) ± S.E.: single experiments.
Setting [1] is: MDA-MB-231, day 3, 10.0 μg/ml, single experiments.
Setting [2] is: MDA-MB-231, day 3, 100 μg/ml, single experiments.
Setting [3] is: MDA-MB-231, day 3 post treatment, 0.5 μg/ml.

“And” between values parts separate entries of the source, which are not always exact repeats. Identical values can stand only once.

This is an account of results in patent US9546211B2 (SINGH MOLECULAR MEDICINE, LLC, priority 2014, dated 2017).

The term % Inhibition denotes the change of the read-out against control, counted positive when it falls.

TNF-alpha, sequence (P01375 77-233 limits assumed): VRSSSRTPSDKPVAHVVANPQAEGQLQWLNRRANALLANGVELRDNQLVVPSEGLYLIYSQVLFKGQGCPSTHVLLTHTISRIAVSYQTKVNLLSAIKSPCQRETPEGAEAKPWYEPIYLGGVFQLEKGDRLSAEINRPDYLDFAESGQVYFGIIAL

B1: anti-TNF-alpha VHH62: anti-TNF-alpha sdAb, SEQ ID NO. 47 (TNF_62, SEQ ID NO. 66) (protein)
VHH: QVQLVESGGGPVQAGETLRLSCTASGFTFAEADMGWYRQAPGHECELVSTITTEGITSEASSYYADSVRGRFTISRDNAKNMVYLQMNSLKPEDTAVYYCAPDPYAYSTYSDYCSWAQGTQGTLVTVSS
modifications: Camelid
For the molecule B1, the “inhibition of killing of U937 by TNF-alpha” value in the test with TNF-alpha was “inhibit killing”.

B2: B.VHH14: anti-STAT3 single-domain antibody VHH14, SEQ ID NO. 4, bacterial production (protein)
VHH: QVQLVESGGGSVQAGGSLRLSCVASTYTGCMGWFRQAPGKEREGVAALSSRGFAGHYTDSVKGRFSISRDYVKNAVYLQMNTVKPEDAAMYYCAAREGWECGETWLDRTAGGHTYWGQGTLVTVSS
modifications: Camelid
notes: 4, bacterial production
Consider B2, for which the “% Inhibition” value in the test on MDA-MB-231 cells (MDA-MB-231, 3 days, 10.0 μg/ml, single experiments) is 23.1% and 20.0% and 38.5% and 23.3%; in the test with MDA-MB-231 cells (MDA-MB-231, 3 days, 100 μg/ml, single experiments) it was 57.0% and 42.8% and 62.3% and 60.6%; in the test on MDA-MB-231 cells (MDA-MB-231, 5 days, 0.5 μg/ml), 0%; in the test with MDA-MB-231 cells (MDA-MB-231, 5 days, 1.0 μg/ml) it was 0%. In addition, the “Mean Absorbance (570 nM) ± S.E., Overall Mean” value is listed as 0.504 ± 0.021 with MDA-MB-231 cells (MDA-MB-231, day 3, 10.0 μg/ml); 0.302 ± 0.043 in the test on MDA-MB-231 cells (MDA-MB-231, day 3, 100 μg/ml); 0.688 ± 0.131 in the test with MDA-MB-231 cells (MDA-MB-231, day 5, 10.0 μg/ml); 0.475 ± 0.0690 in the test with MDA-MB-231 cells (MDA-MB-231, day 5, 100 μg/ml). Moreover, the “Mean Absorbance (570 nM) ± S.E.” value was 0.456 ± 0.048 and 0.499 ± 0.018 and 0.502 ± 0.048 and 0.559 ± 0.041 in the test on MDA-MB-231 cells (setting [1]); 0.255 ± 0.005 and 0.357 ± 0.019 and 0.308 ± 0.021 and 0.287 ± 0.021 in the test with MDA-MB-231 cells (setting [2]); 0.666 ± 0.022 in the test on MDA-MB-231 cells (setting [3]).

B3: H.VHH14: anti-STAT3 sdAb VHH14, SEQ ID NO. 4; H. not defined, presumably mammalian production (protein)
VHH: QVQLVESGGGSVQAGGSLRLSCVASTYTGCMGWFRQAPGKEREGVAALSSRGFAGHYTDSVKGRFSISRDYVKNAVYLQMNTVKPEDAAMYYCAAREGWECGETWLDRTAGGHTYWGQGTLVTVSS
modifications: Camelid
For B3, the “% Inhibition” value in the test with MDA-MB-231 cells (MDA-MB-231, 5 days, 0.5 μg/ml) turned out to be 9.5%; in the test with MDA-MB-231 cells (MDA-MB-231, 5 days, 1.0 μg/ml), 4.9%; with MDA-MB-231 cells (MDA-MB-231, 5 days, 10.0 μg/ml, single experiments), 18.2%; in the test with MDA-MB-231 cells (MDA-MB-231, 5 days, 100 μg/ml, single experiments), 18.9%. The “Mean Absorbance (570 nM) ± S.E.” value in the test on MDA-MB-231 cells (setting [1]) is 0.588 ± 0.020; in the test with MDA-MB-231 cells (setting [2]) it was 0.416 ± 0.030; in the test with MDA-MB-231 cells (setting [3]), 0.485 ± 0.040; with MDA-MB-231 cells (MDA-MB-231, day 5, 10.0 μg/ml, single experiments) it was 0.804 ± 0.015; in the test on MDA-MB-231 cells (MDA-MB-231, day 5, 100 μg/ml, single experiments), 0.797 ± 0.010; in the test on PANC-1 cells (PANC-1, day 3, 10.0 μg/ml), 0.920 ± 0.133 and 1.183 ± 0.114 and 1.163 ± 0.044. Further, the “Mean Absorbance (570 nM) ± S.E.” value with PANC-1 cells (PANC-1, day 3, 100 μg/ml) is 0.808 ± 0.239 and 0.993 ± 0.088 and 0.916 ± 0.088; with PANC-1 cells (PANC-1, day 5, 10.0 μg/ml), 1.859 ± 0.033 and 1.165 ± 0.015 and 1.081 ± 0.103. The “Mean Absorbance (570 nM) ± S.E., Overall Mean” value with PANC-1 cells (PANC-1, day 3, 10.0 μg/ml) is on record as 1.089 ± 0.085; in the test on PANC-1 cells (PANC-1, day 3, 100 μg/ml), 0.906 ± 0.054; in the test on PANC-1 cells (PANC-1, day 5, 10.0 μg/ml), 1.368 ± 0.247; with PANC-1 cells (PANC-1, day 5, 100 μg/ml) it was 0.754 ± 0.333.

B4: anti-TNF-alpha VHH69: anti-TNF-alpha sdAb, SEQ ID NO. 46 (TNF_69, SEQ ID NO. 64) (protein)
VHH: EVQLVESGGGSVLAGGSLRLSCVASGFTSRYNYMAWFRQAPGKEREGVATIGTASGSADYYGSVKDRFTISQDNAKNTVYLQMNSLKPEDTAMYYCAARTYGTISLTPSDYRYWGQGTLVTVSS
modifications: Camelid
For B4, the “inhibition of killing of U937 by TNF-alpha” value with TNF-alpha was “inhibit killing”.
